Measured values taken from PMC12177037 (Communications Biology, 2025).
Residue numbers refer to the chain shown, from its start. In names and notes the source's numbering stands.

Key:
lysozyme [1] = target: T1, lysozyme (Gallus gallus (Chicken)., UniProt P00698); assay: pull-down; FLAG-tagged quenchbody from the crude IVTT mixture bound to anti-FLAG magnetic agarose beads, combined with 100 uL of 1 uM MBP or 10 uM lysozyme, 30 min, room temperature, 1200 rpm; 6 washes with PBS; eluted with 3x FLAG peptide; reducing SDS-PAGE; semi-quantitative comparison with the wild type; settings: one partner purified
T1 construct: lysozyme, ~15 kDa on SDS-PAGE
T1 sequence (P00698 19-147): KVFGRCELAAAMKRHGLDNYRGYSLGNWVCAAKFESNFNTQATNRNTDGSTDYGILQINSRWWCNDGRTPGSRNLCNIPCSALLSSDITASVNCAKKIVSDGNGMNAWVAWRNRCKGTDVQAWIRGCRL

lysozyme [2] = target: T1, lysozyme; assay: fluorescence intensity plate assay at one antigen concentration (fold-sense); 20 nM TAMRA-labelled quenchbody variants in PBS/0.05% Tween-20 with and without antigen (500 nM lysozyme or MBP in Fig. 3B and 3E; concentration not stated for Fig. 3C and 3F); fold-sense = fluorescence with antigen relative to 0 nM antigen; settings: both partners purified
lysozyme [3] = target: T1, lysozyme; assay: other fluorescence titration; 20 nM TAMRA-labelled quenchbody in PBS/0.05% Tween-20 with 1-8000 nM antigen, 1 h at room temperature (legend: 60 min, 25 °C), 384-well plate, excitation 535 ± 20 nm, emission 585 ± 30 nm; fit to single site-specific binding with Hill slope; EC50 as a proxy for KD; settings: both partners purified

B1: lysozyme quenchbody (Qb-Lys) Y104W (VHH)
VHH: DVQLVESGGGSVQAGGSLRLSCAASGYIASINYLGWFRQAPGKEREGVAAVSPAGGTPYYADSVKGRFTVSLDNAENTVYLQMNSLKPEDTALYYCAAARQGWWIPLNSYGYNYWGQGTQVTVSS
notes: as the VHH of m2 (nanobody chain of PDB 1ZVH in the cassette) with the stated change; source: NEBExpress cell-free E. coli protein synthesis (IVTT); not shown: Cys-tag, N-terminal, kept
B1: binds (lysozyme [1]).

B2: lysozyme quenchbody (Qb-Lys) Y27W/Y104W (VHH)
VHH: B1 VHH with Y27W
notes: as the VHH of m2 (nanobody chain of PDB 1ZVH in the cassette) with the stated changes; Member of the 'single, pairwise, and triple Y27W, Y104W and Y110W mutants'; the combination is counted out from that phrase; also called pairwise mutant Y27W, Y104W; source: NEBExpress cell-free E. coli protein synthesis (IVTT); captured on anti-FLAG magnetic beads from the crude IVTT mixture (pull-down)
B2: binds (lysozyme [1]).

B3: lysozyme quenchbody (Qb-Lys) Y27W/Y110W (VHH)
VHH: B1 VHH with Y27W, W104Y, Y110W
notes: as the VHH of m2 (nanobody chain of PDB 1ZVH in the cassette) with the stated changes; Member of the 'single, pairwise, and triple Y27W, Y104W and Y110W mutants'; the combination is counted out from that phrase; also called pairwise mutant Y27W, Y110W; source: NEBExpress cell-free E. coli protein synthesis (IVTT); not shown: Cys-tag, N-terminal, kept
B3: binds (lysozyme [1]).

B4: lysozyme quenchbody (Qb-Lys) Y104W/Y110W (VHH)
VHH: B1 VHH with Y110W
notes: as the VHH of m2 (nanobody chain of PDB 1ZVH in the cassette) with the stated changes; Member of the 'single, pairwise, and triple Y27W, Y104W and Y110W mutants'; the combination is counted out from that phrase; also called pairwise mutant Y104W, Y110W; source: NEBExpress cell-free E. coli protein synthesis (IVTT); not shown: Cys-tag, N-terminal, kept
B4: binds (lysozyme [1]).

B5: lysozyme quenchbody (Qb-Lys) Y27W/Y104W/Y110W (VHH)
VHH: B1 VHH with Y27W, Y110W
notes: as the VHH of m2 (nanobody chain of PDB 1ZVH in the cassette) with the stated changes; also called triple mutant Y27W, Y104W, Y110W; source: NEBExpress cell-free E. coli protein synthesis (IVTT); captured on anti-FLAG magnetic beads from the crude IVTT mixture (pull-down)
B5: binds (lysozyme [1]).

B6: lysozyme quenchbody (Qb-Lys) Y110W (VHH)
VHH: B1 VHH with W104Y, Y110W
notes: as for B1
B6 was tested, and the “fold-sense (fluorescence with antigen relative to without)” value (lysozyme [2]) was 1.7 fold.

B7: lysozyme-binding quenchbody (Qb-Lys), wild type (VHH)
VHH: B1 VHH with W104Y
notes: the labelled, eluted form stood in the fluorescence assays; also called lysozyme quenchbody; source: NEBExpress cell-free E. coli protein synthesis (IVTT); not shown: Cys-tag, N-terminal, kept
For B7, the EC50 (lysozyme [3]) was 7 nM and the “fold-sense (fluorescence with antigen relative to without)” value (lysozyme [2]) was 1.3 fold.

B8: lysozyme quenchbody (Qb-Lys) W103Y (VHH)
VHH: B1 VHH with W103Y, W104Y
notes: as for B1
B8: binds (lysozyme [1]).

B9: lysozyme quenchbody (Qb-Lys) Y27W (VHH)
VHH: B1 VHH with Y27W, W104Y
notes: as for B1
B9: binds (lysozyme [1]).
